# From patent publication US20210317225A1 (Genmab, published 2021)
# What was measured:
# Human CD40 = Human CD40 (human, UniProt P25942 21-277); experiment: cell-based or functional assay
# Human CD137 (TNR9_Human) = Human CD137 (TNR9_Human) (human, UniProt Q07011 24-255); experiment: cell-based or functional assay
# Human CD137 (TNR9_Human), sequence (Q07011 24-255): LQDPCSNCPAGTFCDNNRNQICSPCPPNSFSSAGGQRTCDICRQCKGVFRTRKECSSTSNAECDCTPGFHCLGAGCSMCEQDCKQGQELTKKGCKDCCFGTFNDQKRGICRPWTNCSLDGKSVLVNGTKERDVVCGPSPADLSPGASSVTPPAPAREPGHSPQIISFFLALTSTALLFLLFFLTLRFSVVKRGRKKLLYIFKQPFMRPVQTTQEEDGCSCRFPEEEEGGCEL
# Human CD40, sequence (P25942 21-277): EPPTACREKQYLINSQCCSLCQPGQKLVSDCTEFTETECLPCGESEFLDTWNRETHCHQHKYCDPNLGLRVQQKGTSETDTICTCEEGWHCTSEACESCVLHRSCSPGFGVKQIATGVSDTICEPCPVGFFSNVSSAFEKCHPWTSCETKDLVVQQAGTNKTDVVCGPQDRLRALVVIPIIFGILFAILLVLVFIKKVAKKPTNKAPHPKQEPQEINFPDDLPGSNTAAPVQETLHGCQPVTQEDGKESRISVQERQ
Binder,"luciferase activity (RLU) of NF-KB/293/GFP-Luc cells transduced with CD40, incubated with K562_CD137 (Human CD40) [ng/mL]","luciferase activity (RLU) of NF-KB/293/GFP-Luc cells transduced with CD137, incubated with K562_CD40 (Human CD137 (TNR9_Human)) [ng/mL]"
"CD40-001-FEALxCD137-011-FEAR (bispecific antibody, human IgG1, kappa) heavy 1: EVQLQQSGPDLVKPGASVKISCKTSGYTFTEYIMHWVKQSHGKSLEWIGGIIPNNGGTSYNQKFKDKATMTVDKSSSTGYMELRSLTSEDSAVYYCTRREVYGRNYYALDYWGQGTLVTVSSASTKGPSVFPLAPSSKSTSGGTAALGCLVKDYFPEPVTVSWNSGALTSGVHTFPAVLQSSGLYSLSSVVTVPSSSLGTQTYICNVNHKPSNTKVDKRVEPKSCDKTHTCPPCPAPEFEGGPSVFLFPPKPKDTLMISRTPEVTCVVVAVSHEDPEVKFNWYVDGVEVHNAKTKPREEQYNSTYRVVSVLTVLHQDWLNGKEYKCKVSNKALPAPIEKTISKAKGQPREPQVYTLPPSREEMTKNQVSLTCLVKGFYPSDIAVEWESNGQPENNYKTTPPVLDSDGSFLLYSKLTVDKSRWQQGNVFSCSVMHEALHNHYTQKSLSLSPGK light 1: DIQMTQTTSSLSASLGDRVTITCSASQGINNYLNWYQQKPDGTVKLLIYYTSSLHSGVPSRFSGSGSGTDYSLTISNLEPEDIATYYCQQYSNLPYTFGGGTKLEIKRTVAAPSVFIFPPSDEQLKSGTASVVCLLNNFYPREAKVQWKVDNALQSGNSQESVTEQDSKDSTYSLSSTLTLSKADYEKHKVYACEVTHQGLSSPVTKSFNRGEC heavy 2: QSLEESGGRLVTPGTPLTLTCTVSGIDLSSYHMCWVRQAPGKGLEYIGYIAYGGNTYYANWAKGRFTISKTSTTVDLRITSPTTEDTATYFCARGYSEDSYWGLWGPGTLVTVSSASTKGPSVFPLAPSSKSTSGGTAALGCLVKDYFPEPVTVSWNSGALTSGVHTFPAVLQSSGLYSLSSVVTVPSSSLGTQTYICNVNHKPSNTKVDKRVEPKSCDKTHTCPPCPAPEFEGGPSVFLFPPKPKDTLMISRTPEVTCVVVAVSHEDPEVKFNWYVDGVEVHNAKTKPREEQYNSTYRVVSVLTVLHQDWLNGKEYKCKVSNKALPAPIEKTISKAKGQPREPQVYTLPPSREEMTKNQVSLTCLVKGFYPSDIAVEWESNGQPENNYKTTPPVLDSDGSFFLYSRLTVDKSRWQQGNVFSCSVMHEALHNHYTQKSLSLSPGK light 2: AYDMTQTPASVEAAVGGTVTIKCQASQNIENYLAWYQQKPGQPPKLLIYDTSKLTSGVPSRFSGSGSGTDFTLTISGVQSDDAATYYCQQDYGIIFVDNIFGGGTEVVVKRTVAAPSVFIFPPSDEQLKSGTASVVCLLNNFYPREAKVQWKVDNALQSGNSQESVTEQDSKDSTYSLSSTLTLSKADYEKHKVYACEVTHQGLSSPVTKSFNRGEC",~100,~100
"CD40-001-FEALxCD137-002-FEAR (bispecific antibody, human IgG1, kappa) heavy 1: EVQLQQSGPDLVKPGASVKISCKTSGYTFTEYIMHWVKQSHGKSLEWIGGIIPNNGGTSYNQKFKDKATMTVDKSSSTGYMELRSLTSEDSAVYYCTRREVYGRNYYALDYWGQGTLVTVSSASTKGPSVFPLAPSSKSTSGGTAALGCLVKDYFPEPVTVSWNSGALTSGVHTFPAVLQSSGLYSLSSVVTVPSSSLGTQTYICNVNHKPSNTKVDKRVEPKSCDKTHTCPPCPAPEFEGGPSVFLFPPKPKDTLMISRTPEVTCVVVAVSHEDPEVKFNWYVDGVEVHNAKTKPREEQYNSTYRVVSVLTVLHQDWLNGKEYKCKVSNKALPAPIEKTISKAKGQPREPQVYTLPPSREEMTKNQVSLTCLVKGFYPSDIAVEWESNGQPENNYKTTPPVLDSDGSFLLYSKLTVDKSRWQQGNVFSCSVMHEALHNHYTQKSLSLSPGK light 1: DIQMTQTTSSLSASLGDRVTITCSASQGINNYLNWYQQKPDGTVKLLIYYTSSLHSGVPSRFSGSGSGTDYSLTISNLEPEDIATYYCQQYSNLPYTFGGGTKLEIKRTVAAPSVFIFPPSDEQLKSGTASVVCLLNNFYPREAKVQWKVDNALQSGNSQESVTEQDSKDSTYSLSSTLTLSKADYEKHKVYACEVTHQGLSSPVTKSFNRGEC heavy 2: QSVEESGGRLVTPGTPLTLTCTVSGFSLTYYAVTWVRQPPGKGLEWIGVIYDNGATAFATWAKGRFTMSKNSTTVALKVTSPTTEDTATYFCARSANNAWSTYSNLWGQGTLVTVSSASTKGPSVFPLAPSSKSTSGGTAALGCLVKDYFPEPVTVSWNSGALTSGVHTFPAVLQSSGLYSLSSVVTVPSSSLGTQTYICNVNHKPSNTKVDKRVEPKSCDKTHTCPPCPAPEFEGGPSVFLFPPKPKDTLMISRTPEVTCVVVAVSHEDPEVKFNWYVDGVEVHNAKTKPREEQYNSTYRVVSVLTVLHQDWLNGKEYKCKVSNKALPAPIEKTISKAKGQPREPQVYTLPPSREEMTKNQVSLTCLVKGFYPSDIAVEWESNGQPENNYKTTPPVLDSDGSFFLYSRLTVDKSRWQQGNVFSCSVMHEALHNHYTQKSLSLSPGK light 2: DIVMTQTPSSVSAAVGGTVTINCQASEDISSYLSWYQQKLGQPPKLLIYKASTLESGVPSRFKGSGSGTEYTLTISDLESDDAATYYCQSYYSGSISGYGFVFGGGTGVVVKRTVAAPSVFIFPPSDEQLKSGTASVVCLLNNFYPREAKVQWKVDNALQSGNSQESVTEQDSKDSTYSLSSTLTLSKADYEKHKVYACEVTHQGLSSPVTKSFNRGEC",~100,~100

# Continued, values first:
"luciferase activity (RLU) of NF-KB/293/GFP-Luc cells transduced with CD40, incubated with K562_CD137 (Human CD40) [ng/mL]","luciferase activity (RLU) of NF-KB/293/GFP-Luc cells transduced with CD137, incubated with K562_CD40 (Human CD137 (TNR9_Human)) [ng/mL]",Binder
~100,~100,"CD40-001-FEALxCD137-010-FEAR (bispecific antibody, human IgG1, kappa) heavy 1: EVQLQQSGPDLVKPGASVKISCKTSGYTFTEYIMHWVKQSHGKSLEWIGGIIPNNGGTSYNQKFKDKATMTVDKSSSTGYMELRSLTSEDSAVYYCTRREVYGRNYYALDYWGQGTLVTVSSASTKGPSVFPLAPSSKSTSGGTAALGCLVKDYFPEPVTVSWNSGALTSGVHTFPAVLQSSGLYSLSSVVTVPSSSLGTQTYICNVNHKPSNTKVDKRVEPKSCDKTHTCPPCPAPEFEGGPSVFLFPPKPKDTLMISRTPEVTCVVVAVSHEDPEVKFNWYVDGVEVHNAKTKPREEQYNSTYRVVSVLTVLHQDWLNGKEYKCKVSNKALPAPIEKTISKAKGQPREPQVYTLPPSREEMTKNQVSLTCLVKGFYPSDIAVEWESNGQPENNYKTTPPVLDSDGSFLLYSKLTVDKSRWQQGNVFSCSVMHEALHNHYTQKSLSLSPGK light 1: DIQMTQTTSSLSASLGDRVTITCSASQGINNYLNWYQQKPDGTVKLLIYYTSSLHSGVPSRFSGSGSGTDYSLTISNLEPEDIATYYCQQYSNLPYTFGGGTKLEIKRTVAAPSVFIFPPSDEQLKSGTASVVCLLNNFYPREAKVQWKVDNALQSGNSQESVTEQDSKDSTYSLSSTLTLSKADYEKHKVYACEVTHQGLSSPVTKSFNRGEC heavy 2: QSVEESGGRLVTPGTPLTLTCTVSGFSLSTYAMIWVRQAPGKGLEWIGVVYDNGYISHATWVKGRFTISKTSTTVGLEITSPTTEDTATYFCARSADGSWSTYFNLWGQGTLVTVSSASTKGPSVFPLAPSSKSTSGGTAALGCLVKDYFPEPVTVSWNSGALTSGVHTFPAVLQSSGLYSLSSVVTVPSSSLGTQTYICNVNHKPSNTKVDKRVEPKSCDKTHTCPPCPAPEFEGGPSVFLFPPKPKDTLMISRTPEVTCVVVAVSHEDPEVKFNWYVDGVEVHNAKTKPREEQYNSTYRVVSVLTVLHQDWLNGKEYKCKVSNKALPAPIEKTISKAKGQPREPQVYTLPPSREEMTKNQVSLTCLVKGFYPSDIAVEWESNGQPENNYKTTPPVLDSDGSFFLYSRLTVDKSRWQQGNVFSCSVMHEALHNHYTQKSLSLSPGK light 2: DIVMTQTPASVEAAVGGTVTIKCQASESISNYLAWYQQKPGQPPKLLIYKASTLASGVSSRFKGSGSGTEFTLTISDLESADAATYYCQTNYCCSSSDNGFAFGGGTEVVVKRTVAAPSVFIFPPSDEQLKSGTASVVCLLNNFYPREAKVQWKVDNALQSGNSQESVTEQDSKDSTYSLSSTLTLSKADYEKHKVYACEVTHQGLSSPVTKSFNRGEC"
~100,~100,"CD40-001-FEALxCD137-012-FEAR (bispecific antibody, human IgG1, kappa) heavy 1: EVQLQQSGPDLVKPGASVKISCKTSGYTFTEYIMHWVKQSHGKSLEWIGGIIPNNGGTSYNQKFKDKATMTVDKSSSTGYMELRSLTSEDSAVYYCTRREVYGRNYYALDYWGQGTLVTVSSASTKGPSVFPLAPSSKSTSGGTAALGCLVKDYFPEPVTVSWNSGALTSGVHTFPAVLQSSGLYSLSSVVTVPSSSLGTQTYICNVNHKPSNTKVDKRVEPKSCDKTHTCPPCPAPEFEGGPSVFLFPPKPKDTLMISRTPEVTCVVVAVSHEDPEVKFNWYVDGVEVHNAKTKPREEQYNSTYRVVSVLTVLHQDWLNGKEYKCKVSNKALPAPIEKTISKAKGQPREPQVYTLPPSREEMTKNQVSLTCLVKGFYPSDIAVEWESNGQPENNYKTTPPVLDSDGSFLLYSKLTVDKSRWQQGNVFSCSVMHEALHNHYTQKSLSLSPGK light 1: DIQMTQTTSSLSASLGDRVTITCSASQGINNYLNWYQQKPDGTVKLLIYYTSSLHSGVPSRFSGSGSGTDYSLTISNLEPEDIATYYCQQYSNLPYTFGGGTKLEIKRTVAAPSVFIFPPSDEQLKSGTASVVCLLNNFYPREAKVQWKVDNALQSGNSQESVTEQDSKDSTYSLSSTLTLSKADYEKHKVYACEVTHQGLSSPVTKSFNRGEC heavy 2: QSVEESGGRLVTPGTPLTLTCTVSGFSLSDYYMTWVRQAPGKGLEYIGIMSGSGSTYYASWAKGRFTISKTSSTTLELKITSPTTEDTAIYFCARDGDYAGWGYATGAFDPWGPGTLVTVSSASTKGPSVFPLAPSSKSTSGGTAALGCLVKDYFPEPVTVSWNSGALTSGVHTFPAVLQSSGLYSLSSVVTVPSSSLGTQTYICNVNHKPSNTKVDKRVEPKSCDKTHTCPPCPAPEFEGGPSVFLFPPKPKDTLMISRTPEVTCVVVAVSHEDPEVKFNWYVDGVEVHNAKTKPREEQYNSTYRVVSVLTVLHQDWLNGKEYKCKVSNKALPAPIEKTISKAKGQPREPQVYTLPPSREEMTKNQVSLTCLVKGFYPSDIAVEWESNGQPENNYKTTPPVLDSDGSFFLYSRLTVDKSRWQQGNVFSCSVMHEALHNHYTQKSLSLSPGK light 2: AAVLTQTPSPVSAAVGGTVTISCQASQSVVGNSLLSWFQKKPGQPPKLLIYSASSLASGVPSRFKGSGSGTQFTLTISDLESDDAATYYCTGRYNSDTDTFVFGGGTEVVVKRTVAAPSVFIFPPSDEQLKSGTASVVCLLNNFYPREAKVQWKVDNALQSGNSQESVTEQDSKDSTYSLSSTLTLSKADYEKHKVYACEVTHQGLSSPVTKSFNRGEC"
